From the supplement of paper PMC12764529
± gives the half width of the 95% confidence interval.

How the values were obtained:
[1] = folding stability dG unfold (combined trypsin and chymotrypsin); higher = more stable
Procedure, shortened: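 Only designs with AlphaFold2 dimer inter-PAE above 15 were retained; each was a mini-protein under 80 residues with no cysteine, in a PA-tagged cDNA display construct. After digestion with trypsin and chymotrypsin and sequencing, K50 was inferred by Bayesian fitting of counts, and unfolding free energy was derived per protease or combined against a sequence-predicted unfolded-state K50 and a shared folded-state K50.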

[2] = folding stability dG unfold from trypsin proteolysis; higher = more stable
Description: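 Folding stability of de novo designed mini-proteins (<80 aa, no Cys; designed by TrROS, TrMRF, ProteinMPNN and the joint model) was measured by cDNA display proteolysis with trypsin and chymotrypsin. Each protease was used at 11 concentrations in a threefold dilution series plus a no-protease condition. K50 was inferred by Bayesian fitting of sequencing counts, and dG unfold was derived against a sequence-predicted unfolded-state K50 (Tsuboyama et al. method). Sequences shown include variable-length N-terminal GS-type padding (SAGGSAGG...) inside a display construct carrying a PA tag. Rows were kept only if the AF2 dimer inter-PAE was >15, to exclude likely homo-oligomers.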

Row | Sequence | folding stability dG unfold [1] | folding stability dG unfold [2]
1 | SAGGMSKEEARKAIENPADATYTFTITTRPSTPTPSSTTTTVTAKVTDPDAFLDAVPEGHSVTVTASSAGGS [r16_116_JUSTAS] | < -1 kcal/mol | -0.465 ± 0.14 kcal/mol
2 | SAGGMTKPTSSPSPLDPSTPPEEWIAAIEKELPPDWRIVEPRPRPGPRLVTVLAEDPNSGKRVILRASAGGS [r16_250_JUSTAS] | < -1 kcal/mol | -0.989 ± 0.55 kcal/mol
3 | SAGGMTTTVTVEKFPDGSVTEVTTLPNGIVLTTPLPYTKVVPVDPPDGPAVSWGPVTVTSTESVSSEASAGG [r13_236_JUSTAS] | 0.0898 ± 0.26 kcal/mol | 0.393 ± 0.068 kcal/mol
4 | SAGGMTVTVPREGPVTEEDVEKIAAELAAQGLKEVPLVVIETEKGSLPDGRPTELVRERTYYYEYPESAGGS [r16_44_JUSTAS] | < -1 kcal/mol | -0.307 ± 0.31 kcal/mol
5 | SAGGMYTLSEKTLPDGSKLLTVTRPDKPEEVFLPKEAENLPPETPVTTRGAGGEEVRPVAEILPPALLSAGG [r13_97_JUSTAS] | -0.215 ± 0.18 kcal/mol | 0.257 ± 0.11 kcal/mol
6 | SAGGNYYPMEFRNPENNHEIRITVERDPPGMYRINIQIENPNGNQIPFPMTMPPDDFKPGDEFEIKIPSAGG [r13_959_TrROS] | 0.213 ± 0.44 kcal/mol | 0.676 ± 0.16 kcal/mol
7 | SAGGQTIEIPNGITITYYPNNQVTITIRYPGRPLTVTSPYDSPEEAIDNIIEQAREMARPPPPKKKDDSAGG [r13_896_TrROS] | 0.68 ± 0.41 kcal/mol | 0.633 ± 0.16 kcal/mol
8 | SAGGSADSVMIPVESPEEIKEELQEGPPKRVELPNPDGERYWIQIDWDDPENIEVMPPDDPEKMKPSAGGSA [r15_11_TrROS] | 0.0877 ± 0.28 kcal/mol | 0.716 ± 0.13 kcal/mol
9 | SAGGSAEPPVKEIAEKLIKKSKKPIIATVVEKKKDGYLVTKVKYIPNTGKPIIKVKKITPEELKKKSAGGSA [r15_156_TrMRF] | -0.785 ± 0.7 kcal/mol | 0.159 ± 0.097 kcal/mol
10 | SAGGSAGGAEITIELTEDGTLRITVDGKKLEIRLEPAPPPVEVKTERVLDPDTDELTTRTETVLSAGGSAGG [r6_34_TrROS_Hall] | -0.548 ± 0.43 kcal/mol | 0.203 ± 0.19 kcal/mol
11 | SAGGSAGGDGDFRVSIDPEELPDGQEYKISIQSPDGKPIAEIPIRIPLPPPKPERDDNGKPKPVSAGGSAGG [r6_487_TrROS] | 0.216 ± 0.099 kcal/mol | 0.844 ± 0.025 kcal/mol
12 | SAGGSAGGEPRELEAEVEVIEFPPTGVALAVIRVNDGAEPRLIPVPFDAPEDVTPEELAKKILGSAGGSAGG [r6_20_TrMRF] | < -1 kcal/mol | -0.826 ± 0.63 kcal/mol
13 | SAGGSAGGKIEIVIEGLSEEEVEALAKELRDAGLEIEVTVVPPPAPPPLTAEELAKNPEALKALSAGGSAGG [r6_804_TrROS_Hall] | 0.02 ± 0.26 kcal/mol | 0.714 ± 0.053 kcal/mol
14 | SAGGSAGGKIRILEEEEDPANGERRLMVMVHNPKGKPHQYPVPLDDADEILEHLPPGMPVEIYPSAGGSAGG [r6_113_TrROS] | -0.514 ± 0.97 kcal/mol | 0.362 ± 0.097 kcal/mol
15 | SAGGSAGGKKKFKVEKITEIKVEKLENGEEVIVKIRLKNGEEIEIPAKDIKLEDLPEGAEIEVISAGGSAGG [r6_609_TrROS_Hall] | < -1 kcal/mol | 0.123 ± 0.34 kcal/mol
16 | SAGGSAGGMNKIKVTTSVTTFEETVLAGNKTFTVTLLKKTTTITDPNSSKVTTITETKSPEELSSAGGSAGG [r6_752_JUSTAS] | -0.135 ± 0.27 kcal/mol | 0.294 ± 0.27 kcal/mol
17 | SAGGSAGGMVTFDTPEELEALIEELLARHPRDVPVDVTIESEDSRYTIKVAPERVEEISESEGSSAGGSAGG [r6_289_JUSTAS] | < -1 kcal/mol | -0.763 ± 0.47 kcal/mol
18 | SAGGSAGGMVTVELPGLPTPEEARARAEEVVAAIVAAGHPGEEVTLTVVYPGSGAAETFTVPLASAGGSAGG [r6_238_JUSTAS] | -0.328 ± 0.22 kcal/mol | 0.225 ± 0.059 kcal/mol
19 | SAGGSAGGSAGDEKVPFFVRIIDPKNGKPVREFPVEVDPGKIKIPKELAENMPPDNVEIYSAGGSAGGSAGG [r11_725_TrROS] | < -1 kcal/mol | -0.824 ± 0.4 kcal/mol
20 | SAGGSAGGSAGEEIIRAAKEAAKAGKKVRIVVPKGMSAEEIAKKLAEELNIEKVEVYELPSAGGSAGGSAGG [r11_524_TrROS_Hall] | -0.142 ± 0.11 kcal/mol | 0.332 ± 0.086 kcal/mol
21 | SAGGSAGGSAGGALVVEVEVEGERRTLVVPVPDEIPPGAEEVAKKLGLKDAKVKIAPLDLSAGGSAGGSAGG [r11_219_TrMRF] | < -1 kcal/mol | -0.662 ± 0.53 kcal/mol
22 | SAGGSAGGSAGGGAMSPEPLGFKKVETKVEVVGGSPVIVVKLETPEGELELELPPDAKLSAGGSAGGSAGGS [r10_968_JUSTAS] | < -1 kcal/mol | -0.308 ± 0.12 kcal/mol
23 | SAGGSAGGSAGGGLYNVVVTGKGEERVLPAKSPDDVKEALEEAGLEIKSIHPETGIVEAGSAGGSAGGSAGG [r7_726_TrMRF] | < -1 kcal/mol | -0.471 ± 0.18 kcal/mol
24 | SAGGSAGGSAGGIEELAKKYPNIKIVEVKTVKVTETNKDGKKTEKTKTEIKIYKDGEEISAGGSAGGSAGGS [r10_0_TrROS_Hall] | < -1 kcal/mol | -0.0124 ± 0.2 kcal/mol

Row | Sequence | folding stability dG unfold [1] | folding stability dG unfold [2]
25 | SAGGSAGGSAGGKIKVVFELPDAPLFLVAEADSPEELLERAVKLEEELGVPLKVVKVEGSAGGSAGGSAGGS [r10_1087_TrMRF] | < -1 kcal/mol | -0.509 ± 0.23 kcal/mol
26 | SAGGSAGGSAGGKNMQEVPFPIEIKDPKNGKKIKIPVEVRRNPDDGKYQITPEALEELIKSAGGSAGGSAGG [r7_557_TrROS] | < -1 kcal/mol | -0.809 ± 0.31 kcal/mol
27 | SAGGSAGGSAGGMEGFTAVTFTTTTSSNGTRTTTVTTTTPDGTVTTTTTTTPVTPPPNTASAGGSAGGSAGG [r11_998_JUSTAS] | 0.155 ± 0.14 kcal/mol | 0.503 ± 0.07 kcal/mol
28 | SAGGSAGGSAGGMITIEEDPNKDLKTVTVYVPEKPKWVTVDVKPSETIEEALAKAEELLKSAGGSAGGSAGG [r7_138_JUSTAS] | -0.514 ± 0.18 kcal/mol | 0.0308 ± 0.064 kcal/mol
29 | SAGGSAGGSAGGMKIVLKVPENNPEAEKEAKKLKEEPGLKEVEVEFIPKSLVPEEPVLLSAGGSAGGSAGGS [r10_1110_JUSTAS] | < -1 kcal/mol | -0.334 ± 0.28 kcal/mol
30 | SAGGSAGGSAGGMLVLIKTPKKPVLLSEEEVKSNPELLEKLKEEGFPIDGIEFLDKEKLSAGGSAGGSAGGS [r10_396_JUSTAS] | -0.451 ± 0.31 kcal/mol | -0.185 ± 0.1 kcal/mol
31 | SAGGSAGGSAGGMNTNPKFVSEEDDKEIYREYNPSTGKETYIIYYPKPNTKKIVPPELISAGGSAGGSAGGS [r10_172_JUSTAS] | < -1 kcal/mol | -0.634 ± 0.23 kcal/mol
32 | SAGGSAGGSAGGMPELTVETEGFPDGSYRVVVTNPGTGELVAVAERPSSTSVADFAKELASAGGSAGGSAGG [r7_633_TrMRF] | < -1 kcal/mol | -0.688 ± 0.13 kcal/mol
33 | SAGGSAGGSAGGMPLNFSTVETEELPELGATVTTSTAPGYILTETRTPEGVEVQRYPALLSAGGSAGGSAGG [r7_280_JUSTAS] | 0.108 ± 0.2 kcal/mol | 0.86 ± 0.068 kcal/mol
34 | SAGGSAGGSAGGMPVTVEVKEEELPGGEKVITVTVTYPDPVVETLEVKKLPPVDPNNKPSAGGSAGGSAGGS [r10_684_JUSTAS] | -0.103 ± 0.3 kcal/mol | 0.294 ± 0.1 kcal/mol
35 | SAGGSAGGSAGGMTIKEIMKRFPGGGEIDITEIPGDRITIEMRFPNGNNRRRTIPPDEISAGGSAGGSAGGS [r10_612_TrROS] | -0.582 ± 0.33 kcal/mol | -0.04 ± 0.34 kcal/mol
36 | SAGGSAGGSAGGMVRFPDGKEVETESEEELEELLKGVPVEEITIEDPEEKGEKKIPVKLSAGGSAGGSAGGS [r10_1191_JUSTAS] | -0.942 ± 0.48 kcal/mol | 0.137 ± 0.044 kcal/mol
37 | SAGGSAGGSAGGNEDDNVPIGEKTVVKKVPPSSPVTITETIYRRPSTGTTSTTEKVIIESAGGSAGGSAGGS [r10_6_JUSTAS] | < -1 kcal/mol | -1.12 ± 0.42 kcal/mol
38 | SAGGSAGGSAGGNKEVEIPIMIYWPDPNGKPNMHTVEIDMPNNDLPDIKDWAEDNPWTIMSAGGSAGGSAGG [r7_539_TrROS] | -0.532 ± 0.22 kcal/mol | 0.287 ± 0.05 kcal/mol
39 | SAGGSAGGSAGGPSAVSSSSSSRTTTVPGTGTPLRVSSTTTTLDAATGASTTTTTTSPGASAGGSAGGSAGG [r11_1029_JUSTAS] | < -1 kcal/mol | -0.553 ± 0.13 kcal/mol
40 | SAGGSAGGSAGGSAVERIIKEMREKFPPGKEVEIPIEVRTDNGNYVPIEIEFRIPPDQPSAGGSAGGSAGGS [r10_11_TrROS] | < -1 kcal/mol | -0.557 ± 0.4 kcal/mol
41 | SAGGSAGGSAGGSGPEPKFTVEVDPEKDEVTFLVELEDKPLLLVVKDWPEDDPLLKNAFSAGGSAGGSAGGS [r4_328_TrMRF] | 0.0825 ± 0.29 kcal/mol | 0.388 ± 0.097 kcal/mol
42 | SAGGSAGGSAGGSGSSIPIVVEEKPEVSEDPSRVVLTTKIILKDPNGNSIETITEVELKSAGGSAGGSAGGS [r4_75_JUSTAS] | < -1 kcal/mol | -0.492 ± 0.066 kcal/mol
43 | SAGGSAGGSAGGSKKTLPFPSVEDVVKYLKDLGLKDVKVDLPPGDLTINLDEIEEALKESAGGSAGGSAGGS [r4_101_TrMRF] | < -1 kcal/mol | -0.957 ± 0.57 kcal/mol
44 | SAGGSAGGSAGGSMPVEILEVEEADPETGIRTYKLRDPVIGVESTIEGPLSPEEIEALLSAGGSAGGSAGGS [r4_228_JUSTAS] | < -1 kcal/mol | -0.808 ± 0.55 kcal/mol
45 | SAGGSAGGSAGGSMPYVVVVKYPDGSTVTFPPGEDINVKVSPDKKGVEVVSVVPLSELLSAGGSAGGSAGGS [r4_122_JUSTAS] | -0.332 ± 0.2 kcal/mol | 0.179 ± 0.054 kcal/mol
46 | SAGGSAGGSAGGSMYVIVTVPPGERLTFPLNPEIDVPEEEIKEKLKKELPVESIEILLPSAGGSAGGSAGGS [r4_116_JUSTAS] | -0.813 ± 0.99 kcal/mol | -0.362 ± 0.19 kcal/mol
47 | SAGGSAGGSAGGSPLIVEFKGDELRNTIPSGFEVLSEERDPELGYVRAALRALGSGETLSAGGSAGGSAGGS [r4_435_TrMRF] | < -1 kcal/mol | -0.707 ± 0.27 kcal/mol
